The test has as its target CD3 (cell surface marker on Jurkat cells and on Ramos cells) (human) (UniProt P07766). The test can be described thus: cell-based or functional assay.

Among the data in patent US20240167082A1 are share of drops with labelled cells that cross the Cy5 fluorescence threshold, time and time to Cy5 fluorescence in drops with Jurkat cells from a mixed Jurkat and mouse pool values, retold here.

UniProt P07766, sequence (P07766 23-207): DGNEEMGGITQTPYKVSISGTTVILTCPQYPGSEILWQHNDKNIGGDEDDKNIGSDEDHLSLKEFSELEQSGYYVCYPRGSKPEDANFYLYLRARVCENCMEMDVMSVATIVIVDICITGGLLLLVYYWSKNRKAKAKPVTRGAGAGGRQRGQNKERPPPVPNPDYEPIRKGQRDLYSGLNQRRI

In the case of “TotalSeqB anti-CD3 antibody (Biolegend cat no. 300477; anti-human CD3-totalseqB Ab, clone UCHT1)”, the share of drops with labelled cells that cross the Cy5 fluorescence threshold was more than 95%; the time at which drops cross the Cy5 fluorescence threshold was 20 to 50 min; the time at which drops cross the Cy5 fluorescence threshold, Jurkat cells in droplets lay within 20 to 38 min; the time to Cy5 fluorescence in drops with Jurkat cells from a mixed Jurkat and mouse pool turned out to be 20 min.
